Test results as given in patent US20130101549A1 (Biogen, published 2013).

T1: Her2-Fc D1-D2 (MR067)
T1 construct: also called ErbB2-Fc Domains 1-2
T1 chain: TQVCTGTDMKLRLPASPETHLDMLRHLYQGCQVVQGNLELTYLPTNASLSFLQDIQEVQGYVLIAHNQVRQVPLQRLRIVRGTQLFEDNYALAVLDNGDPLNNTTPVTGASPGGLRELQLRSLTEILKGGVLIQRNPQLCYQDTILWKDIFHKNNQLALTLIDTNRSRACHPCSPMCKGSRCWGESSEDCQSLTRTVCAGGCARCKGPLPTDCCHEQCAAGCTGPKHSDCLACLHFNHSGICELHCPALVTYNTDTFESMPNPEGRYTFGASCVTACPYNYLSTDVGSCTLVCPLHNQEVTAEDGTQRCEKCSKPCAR

T2: Her2-Fc D1 (MR066)
T2 construct: also called ErbB2-Fc Domain 1
T2 chain: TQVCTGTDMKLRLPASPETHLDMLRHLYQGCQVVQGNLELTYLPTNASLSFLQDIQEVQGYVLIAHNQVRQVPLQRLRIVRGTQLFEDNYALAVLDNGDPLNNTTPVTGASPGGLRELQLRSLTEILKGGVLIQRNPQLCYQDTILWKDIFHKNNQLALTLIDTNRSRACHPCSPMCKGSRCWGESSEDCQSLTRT


Tests used:
[1] = target: T3, human HER2/ErbB2 on cells (human, UniProt P04626 23-1255); assay: flow cytometry on CHO cells expressing human HER2
T3 construct: whole, on cells; also called hHER2/ErbB2; wild type HER2/ErbB
Procedure: CHO cells (Chinese Hamster Ovary cells) stably transfected with hHER2 expression vector and selected in G418 containing medium. G418 resistant clones were pooled and split 24 hours prior to the setup of the assay to obtain 70% confluent monolayer. Routinely, CHO cell line was maintained within 20 passages. Cells were lifted with cell dissociation buffer (Gibco catalog #13151-014), counted, washed and adjusted to 1×10⁶ cells/ml and one ml of cells were then added to each tube (12×75 mm tube Falcon catalog #352054). Cells were pelleted and supernatant removed by centrifugation at 1200 rpm for 5 min and 100 μl of diluted antibodies were then added to the cell pellet. Purified Fabs were tested at a starting concentration of either 210 or 60 μg/ml with 1:3 dilutions in FACS buffer, down to 0.001 μg/ml. FACS buffer used throughout the assay was PBS (without Ca^{+±}/Mg^{+±}) containing 1% BSA (Sigma catalog #A-7906) and 0.1% Sodium Azide (Sigma catalog #S2002). Samples were allowed to incubate on ice for 1 hour and 15 minutes then were washed with 2 ml FACS buffer and centrifuged at 1200 rpm for 5 minutes at 4° C. The supernatant was aspirated and 100 μl of the secondary detection antibody was added to each corresponding tube in FACS buffer. Samples were then incubated for 30 minutes on ice, in the dark. Cells were washed as described above, then, re-suspended in 250 μl FACS buffer per tube/sample.
A full titration was performed on MCF7 and SKBR3 tumor cell lines, and human Her2-CHO and murine Her2-CHO cell lines in order to calculate an approximate EC50 (data not shown, see summary in Table 1).

human HER2-Fc [2] = target: T4, human HER2-Fc (human, UniProt P04626 23-652); assay: ELISA on coated huHER2-Fc, HRP anti-human kappa; the number is C of the printed 4-P fit y=(A-D)/(1+(x/C)^B)+D (A -0.004, B 0.92, D 0.931, R^2 1); x axis: Fab equivalent concentration; last point about 13000 ng/ml at OD about 0.73, upper plateau not reached by the points
T4 construct: Bought from R&D Systems: homodimeric fusion of the HER2 extracellular domain and human IgG1 Fc; also called human ErbB2-Fc; rhErbB2-Fc; not shown: Fc fragment of human IgG1

murine HER2-Fc [3] = target: T5, murine HER2-Fc (mouse; human, UniProt P70424 23-653); assay: ELISA on coated muHER2-Fc, HRP anti-human kappa; the number is C of the printed 4-P fit y=(A-D)/(1+(x/C)^B)+D (A 0.002, B 0.792, D 0.827, R^2 0.999); x axis: Fab equivalent concentration; C lies beyond the last point (about 14000 ng/ml, OD about 0.28): extrapolated by the fit
T5 construct: extracellular domain; Bought from R&D Systems; also called murine ErbB2-Fc; not shown: Fc fragment of human IgG1

Her2-Fc D1-D2-D3 (MR068) = target: T6, Her2-Fc D1-D2-D3 (MR068); assay: ELISA, HER2-Fc construct captured by anti-huFc, Fab from 1 ug/ml in 5-fold steps, HRP anti-kappa/lambda
T6 construct: also called ErbB2-Fc Domains 1-3
Procedure: (§1) Nunc Maxisorp ELISA plates were coated with 5 ug/ml rabbit pAbs anti-human Fc gamma in PBS overnight at 4 degrees. Plates were washed one time with PBST (PBS, 0.05% tween 20) and blocked with 1% BSA in PBS for one hour at room temperature. Plates were washed one time with PBST and incubated with 1 ug/ml HER2-Fc fusion protein for one hour. Plates were washed three times with PBST and dilutions of Fab (four 5-fold serial dilutions, starting at 1 ug/ml) in block were added and incubated for ninety minutes. Plates were washed three times with PBST and incubated with 1:2,000 HRP-labelled goat anti-human kappa (Southern Biotech cat#2060-05) and HRP-labelled goat anti-human lambda (Southern Biotech cat#2070-05) in block for one hour at room temperature. Plates were washed three times with PBST, developed with TMB solution for 5 minutes, and stopped with equal volume 1 N H₂SO₄. Absorbance values were read at 450 nm.

Her2-Fc D1-D2 (MR067) = target: T1, Her2-Fc D1-D2 (MR067); assay: as above
Procedure: as §1

Her2-Fc D1 (MR066) = target: T2, Her2-Fc D1 (MR066); assay: as above
Procedure: as §1

[4] = target: T7, Her2-Fc D1-D2-D3-D4 (MR069); assay: as above
T7 construct: made in house, kept apart from the R&D Systems HER2-Fc; also called ErbB2-Fc full length ECD
Procedure: as §1

EGFR on MDA-MB-468 cells = target: T8, EGFR on MDA-MB-468 cells (UniProt P00533 25-1210, limits assumed); assay: FACS on MDA-MB-468 cells (EGFR+, HER2-)
T8 construct: whole, on cells; also called MDA-MB-468 tumor cell line (EGFR+, HER2-)

murine HER2-Fc [5] = target: T5, murine HER2-Fc; assay: ELISA on coated muHER2-Fc, HRP anti-human kappa; the number is C of the printed 4-P fit (A -0.002, B 0.6, D 1.035, R^2 1); x axis: Fab equivalent concentration; C lies beyond the last point (about 120 ng/ml, OD about 0.4): extrapolated by the fit
[6] = target: T3, human HER2/ErbB2 on cells; assay: FACS on HER2-expressing cells
human HER2-Fc [7] = target: T4, human HER2-Fc; assay: ELISA on coated HER2-Fc
Procedure: Human and murine ErbB2-Fc were obtained from R&D Systems. Wells of 96-well plates were coated with 2 ug/ml or 0.2 ug/ml of human or murine HER2-Fc by incubation overnight at 4-8° C. with either of these six proteins (80 ul/well of a 0.2 or 2 ug/ml solution in PBS). Wells were emptied, filled completely with a solution of PBS with 1% BSA (blocking buffer) and incubated at room temperature for 1 hour. Wells were emptied, washed twice PBS containing 0.05% Tween 20 (PBST) and filled with the samples (80 ul/well of 3× dilution series of the standard and supernatants in blocking buffer) prepared in another 96-well plate. After a 2-hour incubation at room temperature, the wells were emptied, washed three times with PBST and filled with a solution of HRP-conjugated goat pAbs anti-human kappa chain (80 ul/well of a 2000-fold dilution in blocking buffer). After 1-hour incubation, the wells were emptied and filled with a solution of HRP substrate prepared freshly. The color was left to develop for 3 minutes and was stopped by addition of an equal volume of 1N H₂SO₄. Absorbance was measured at 450 nm using a Plate Reader (SpectraMax, Molecular Devices). The data was processed and graphs were created using SoftMax Pro software.

human HER2-Fc [8] = target: T4, human HER2-Fc; assay: ELISA on coated huHER2-Fc, HRP anti-human kappa; the number is C of the printed 4-P fit (A 0.008, B 1.216, D 0.834, R^2 1); x axis: Fab equivalent concentration

Row | EC50 [1] [nM] | EC50 (human HER2-Fc [2]) [mg/L] | EC50 (murine HER2-Fc [3]) [mg/L] | binding result (Her2-Fc D1-D2-D3 (MR068)) | binding result (Her2-Fc D1-D2 (MR067)) | binding result (Her2-Fc D1 (MR066)) | binding result [4] | binding result (EGFR on MDA-MB-468 cells) | EC50 (murine HER2-Fc [5]) [mg/L] | EC50 [6] [nM] | EC50 (human HER2-Fc [7]) [nM] | EC50 (human HER2-Fc [8]) [mg/L] | Binder
1 | 60 | 3.43 | 31.8 | binds | binds | no binding (tested: 1 ug/ml) | binds | no binding |  |  |  |  | BIIB71F10 Fab (Fab, V domains shown, Soluble human Fab; also called Fab 71F10) VH: EVQLLESGGGLVQPGGSLRLSCAASGFTFSSYGMVWVRQAPGKGLEWVSSISSSGGLTWYADSVKGRFTISRDNSKNTLYLQMNSLRAEDTAVYYCASPPGIAVARDYWGQGTLVTVSS VL: DIQMTQSPSSLSASVGDRVTITCRASQGISNYLAWYQQKPGKVPKLLIYAASTLQSGVPSRFSGSGSGTDFTLTISSLQPEDVATYYCQKYNSALLTFGGGTKVEIK
2 |  |  |  |  |  |  |  |  | 0.248 | 2 | 0.07 | 0.00634 | BIIB71F10 Mab (BIIB71F10-134, 71F10 IgG) (antibody, V domains shown, IgG1; also called BIIB71-F10 antibody) VH: EVQLLESGGGLVQPGGSLRLSCAASGFTFSSYGMVWVRQAPGKGLEWVSSISSSGGLTWYADSVKGRFTISRDNSKNTLYLQMNSLRAEDTAVYYCASPPGIAVARDYWGQGTLVTVSS VL: DIQMTQSPSSLSASVGDRVTITCRASQGISNYLAWYQQKPGKVPKLLIYAASTLQSGVPSRFSGSGSGTDFTLTISSLQPEDVATYYCQKYNSALLTFGGGTKVEIKR
